Source: paper doi:10.1101/2025.11.11.685192 (bioRxiv, 2025)
Blank lines part the entries; values can stand above or below the molecule they belong to.

Assays:
[1] = molecular target: full-length gp130 ΔSY with additional D4-D6 deletion (gp130 ΔSYΔ(D4-D6)) (human) (UniProt P40189); assay: cryo-EM structure
[2] = molecular target: full-length gp130 ΔSY with an additional D1 deletion (gp130 ΔSYΔD1) (human) (UniProt P40189); assay: cryo-EM structure
[3] = molecular target: gp130 D215G mutant, soluble extracellular domain (gp130 D215G ECD) (human); assay: cryo-EM structure
[4] = molecular target: gp130 S187-Y190 deletion mutant, soluble extracellular domain (gp130 ΔSY ECD) (human); assay: SEC + SEC-MALS + native gel or EMSA
[5] = molecular target: gp130 S187-Y190 deletion mutant, soluble extracellular domain (gp130 ΔSY ECD) (human); assay: cryo-EM structure
[6] = molecular target: gp130 V252G mutant, soluble extracellular domain (gp130 V252G ECD) (human); assay: cryo-EM structure
cryo-EM structure = molecular target: the molecule itself; assay: cryo-EM structure
native gel or EMSA = molecular target: the molecule itself; assay: native gel or EMSA

- stoichiometry N [1]: 2
Molecule: full-length gp130 ΔSY with additional D4-D6 deletion (gp130 ΔSYΔ(D4-D6)) (from UniProt P40189 23-918) (receptor)

- stoichiometry N [2]: 2
Molecule: full-length gp130 ΔSY with an additional D1 deletion (gp130 ΔSYΔD1) (from UniProt P40189 23-918) (receptor)

- stoichiometry N [3]: 2
Molecule: gp130 D215G mutant, soluble extracellular domain (gp130 D215G ECD) (domain or fragment)

- stoichiometry N [4]: 2
- stoichiometry N [5]: 2
Molecule: gp130 S187-Y190 deletion mutant, soluble extracellular domain (gp130 ΔSY ECD) (domain or fragment)

- stoichiometry N [6]: 2
Molecule: gp130 V252G mutant, soluble extracellular domain (gp130 V252G ECD) (domain or fragment)

B1: full-length gp130 P216H mutant (receptor, human, UniProt P40189 23-918, looked up)
chain: ELLDPCGYISPESPVVQLHSNFTAVCVLKEKCMDYFHVNANYIVWKTNHFTIPKEQYTIINRTASSVTFTDIASLNIQLTCNILTFGQLEQNVYGITIISGLPPEKPKNLSCIVNEGKKMRCEWDGGRETHLETNFTLKSEWATHKFADCKAKRDTPTSCTVDYSTVYFVNIEVWVEAENALGKVTSDHINFDHVYKVKPNPPHNLSVINSEELSSILKLTWTNPSIKSVIILKYNIQYRTKDASTWSQIPPEDTASTRSSFTVQDLKPFTEYVFRIRCMKEDGKGYWSDWSEEASGITYEDRPSKAPSFWYKIDPSHTQGYRTVQLVWKTLPPFEANGKILDYEVTLTRWKSHLQNYTVNATKLTVNLTNDRYLATLTVRNLVGKSDAAVLTIPACDFQATHPVMDLKAFPKDNMLWVEWTTPRESVKKYILEWCVLSDKAPCITDWQQEDGTVHRTYLRGNLAESKCYLITVTPVYADGPGSPESIKAYLKQAPPSKGPTVRTKKVGKNEAVLEWDQLPVDVQNGFIRNYTIFYRTIIGNETAVNVDSSHTEYTLSSLTSDTLYMVRMAAYTDEGGKDGPEFTFTTPKFAQGEIEAIVVPVCLAFLLTTLLGVLFCFNKRDLIKKHIWPNVPDPSKSHIAQWSPHTPPRHNFNSKDQMYSDGNFTDVSVVEIEANDKKPFPEDLKSLDLFKKEKINTEGHSSGIGGSSCMSSSRPSISSSDENESSQNTSSTVQYSTVVHSGYRHQVPSVQVFSRSESTQPLLDSEERPEDLQLVDHVDGGDGILPRQQYFKQNCSQHESSPDISHFERSKQVSSVNEEDFVRLKQQISDHISQSCGSGQMKMFQEVSAADAFGPGTEGQVERFETVGMEAATDEGMPKSYLPQTVRQGGYMPQ
- stoichiometry N (cryo-EM structure): 2

B2: full-length gp130 E195-V196 deletion mutant (gp130 ΔEV) (receptor, human, UniProt P40189 23-918, looked up)
chain: ELLDPCGYISPESPVVQLHSNFTAVCVLKEKCMDYFHVNANYIVWKTNHFTIPKEQYTIINRTASSVTFTDIASLNIQLTCNILTFGQLEQNVYGITIISGLPPEKPKNLSCIVNEGKKMRCEWDGGRETHLETNFTLKSEWATHKFADCKAKRDTPTSCTVDYSTVYFVNIWVEAENALGKVTSDHINFDPVYKVKPNPPHNLSVINSEELSSILKLTWTNPSIKSVIILKYNIQYRTKDASTWSQIPPEDTASTRSSFTVQDLKPFTEYVFRIRCMKEDGKGYWSDWSEEASGITYEDRPSKAPSFWYKIDPSHTQGYRTVQLVWKTLPPFEANGKILDYEVTLTRWKSHLQNYTVNATKLTVNLTNDRYLATLTVRNLVGKSDAAVLTIPACDFQATHPVMDLKAFPKDNMLWVEWTTPRESVKKYILEWCVLSDKAPCITDWQQEDGTVHRTYLRGNLAESKCYLITVTPVYADGPGSPESIKAYLKQAPPSKGPTVRTKKVGKNEAVLEWDQLPVDVQNGFIRNYTIFYRTIIGNETAVNVDSSHTEYTLSSLTSDTLYMVRMAAYTDEGGKDGPEFTFTTPKFAQGEIEAIVVPVCLAFLLTTLLGVLFCFNKRDLIKKHIWPNVPDPSKSHIAQWSPHTPPRHNFNSKDQMYSDGNFTDVSVVEIEANDKKPFPEDLKSLDLFKKEKINTEGHSSGIGGSSCMSSSRPSISSSDENESSQNTSSTVQYSTVVHSGYRHQVPSVQVFSRSESTQPLLDSEERPEDLQLVDHVDGGDGILPRQQYFKQNCSQHESSPDISHFERSKQVSSVNEEDFVRLKQQISDHISQSCGSGQMKMFQEVSAADAFGPGTEGQVERFETVGMEAATDEGMPKSYLPQTVRQGGYMPQ
- stoichiometry N (cryo-EM structure): 2

B3: full-length gp130 K173-D177 deletion mutant (gp130 ΔKD) (receptor, human, UniProt P40189 23-918, looked up)
chain: ELLDPCGYISPESPVVQLHSNFTAVCVLKEKCMDYFHVNANYIVWKTNHFTIPKEQYTIINRTASSVTFTDIASLNIQLTCNILTFGQLEQNVYGITIISGLPPEKPKNLSCIVNEGKKMRCEWDGGRETHLETNFTLKSEWATHKFADCTPTSCTVDYSTVYFVNIEVWVEAENALGKVTSDHINFDPVYKVKPNPPHNLSVINSEELSSILKLTWTNPSIKSVIILKYNIQYRTKDASTWSQIPPEDTASTRSSFTVQDLKPFTEYVFRIRCMKEDGKGYWSDWSEEASGITYEDRPSKAPSFWYKIDPSHTQGYRTVQLVWKTLPPFEANGKILDYEVTLTRWKSHLQNYTVNATKLTVNLTNDRYLATLTVRNLVGKSDAAVLTIPACDFQATHPVMDLKAFPKDNMLWVEWTTPRESVKKYILEWCVLSDKAPCITDWQQEDGTVHRTYLRGNLAESKCYLITVTPVYADGPGSPESIKAYLKQAPPSKGPTVRTKKVGKNEAVLEWDQLPVDVQNGFIRNYTIFYRTIIGNETAVNVDSSHTEYTLSSLTSDTLYMVRMAAYTDEGGKDGPEFTFTTPKFAQGEIEAIVVPVCLAFLLTTLLGVLFCFNKRDLIKKHIWPNVPDPSKSHIAQWSPHTPPRHNFNSKDQMYSDGNFTDVSVVEIEANDKKPFPEDLKSLDLFKKEKINTEGHSSGIGGSSCMSSSRPSISSSDENESSQNTSSTVQYSTVVHSGYRHQVPSVQVFSRSESTQPLLDSEERPEDLQLVDHVDGGDGILPRQQYFKQNCSQHESSPDISHFERSKQVSSVNEEDFVRLKQQISDHISQSCGSGQMKMFQEVSAADAFGPGTEGQVERFETVGMEAATDEGMPKSYLPQTVRQGGYMPQ
- stoichiometry N (cryo-EM structure): 2

B4: full-length gp130 S187-Y190 deletion mutant (gp130 ΔSY full-length) (receptor, human, UniProt P40189 23-918, looked up)
chain: ELLDPCGYISPESPVVQLHSNFTAVCVLKEKCMDYFHVNANYIVWKTNHFTIPKEQYTIINRTASSVTFTDIASLNIQLTCNILTFGQLEQNVYGITIISGLPPEKPKNLSCIVNEGKKMRCEWDGGRETHLETNFTLKSEWATHKFADCKAKRDTPTSCTVDYFVNIEVWVEAENALGKVTSDHINFDPVYKVKPNPPHNLSVINSEELSSILKLTWTNPSIKSVIILKYNIQYRTKDASTWSQIPPEDTASTRSSFTVQDLKPFTEYVFRIRCMKEDGKGYWSDWSEEASGITYEDRPSKAPSFWYKIDPSHTQGYRTVQLVWKTLPPFEANGKILDYEVTLTRWKSHLQNYTVNATKLTVNLTNDRYLATLTVRNLVGKSDAAVLTIPACDFQATHPVMDLKAFPKDNMLWVEWTTPRESVKKYILEWCVLSDKAPCITDWQQEDGTVHRTYLRGNLAESKCYLITVTPVYADGPGSPESIKAYLKQAPPSKGPTVRTKKVGKNEAVLEWDQLPVDVQNGFIRNYTIFYRTIIGNETAVNVDSSHTEYTLSSLTSDTLYMVRMAAYTDEGGKDGPEFTFTTPKFAQGEIEAIVVPVCLAFLLTTLLGVLFCFNKRDLIKKHIWPNVPDPSKSHIAQWSPHTPPRHNFNSKDQMYSDGNFTDVSVVEIEANDKKPFPEDLKSLDLFKKEKINTEGHSSGIGGSSCMSSSRPSISSSDENESSQNTSSTVQYSTVVHSGYRHQVPSVQVFSRSESTQPLLDSEERPEDLQLVDHVDGGDGILPRQQYFKQNCSQHESSPDISHFERSKQVSSVNEEDFVRLKQQISDHISQSCGSGQMKMFQEVSAADAFGPGTEGQVERFETVGMEAATDEGMPKSYLPQTVRQGGYMPQ
- stoichiometry N (native gel or EMSA): 2

B5: full-length gp130 A418-F421 deletion mutant (gp130 ΔAF) (receptor, human, UniProt P40189 23-918, looked up)
chain: ELLDPCGYISPESPVVQLHSNFTAVCVLKEKCMDYFHVNANYIVWKTNHFTIPKEQYTIINRTASSVTFTDIASLNIQLTCNILTFGQLEQNVYGITIISGLPPEKPKNLSCIVNEGKKMRCEWDGGRETHLETNFTLKSEWATHKFADCKAKRDTPTSCTVDYSTVYFVNIEVWVEAENALGKVTSDHINFDPVYKVKPNPPHNLSVINSEELSSILKLTWTNPSIKSVIILKYNIQYRTKDASTWSQIPPEDTASTRSSFTVQDLKPFTEYVFRIRCMKEDGKGYWSDWSEEASGITYEDRPSKAPSFWYKIDPSHTQGYRTVQLVWKTLPPFEANGKILDYEVTLTRWKSHLQNYTVNATKLTVNLTNDRYLATLTVRNLVGKSDAAVLTIPQATHPVMDLKAFPKDNMLWVEWTTPRESVKKYILEWCVLSDKAPCITDWQQEDGTVHRTYLRGNLAESKCYLITVTPVYADGPGSPESIKAYLKQAPPSKGPTVRTKKVGKNEAVLEWDQLPVDVQNGFIRNYTIFYRTIIGNETAVNVDSSHTEYTLSSLTSDTLYMVRMAAYTDEGGKDGPEFTFTTPKFAQGEIEAIVVPVCLAFLLTTLLGVLFCFNKRDLIKKHIWPNVPDPSKSHIAQWSPHTPPRHNFNSKDQMYSDGNFTDVSVVEIEANDKKPFPEDLKSLDLFKKEKINTEGHSSGIGGSSCMSSSRPSISSSDENESSQNTSSTVQYSTVVHSGYRHQVPSVQVFSRSESTQPLLDSEERPEDLQLVDHVDGGDGILPRQQYFKQNCSQHESSPDISHFERSKQVSSVNEEDFVRLKQQISDHISQSCGSGQMKMFQEVSAADAFGPGTEGQVERFETVGMEAATDEGMPKSYLPQTVRQGGYMPQ
- stoichiometry N (cryo-EM structure): 2
